Test results reported in the DeepSol protein solubility set.

Test: soluble on expression in E. coli; label from the status in PepcDB or PDB records

Sequence | soluble on expression in E. coli
SSPATVTEPLKAEPAEAPVPLLRVSPSSLQCEPGYLLPNSPVLGTGGVTGYEYLTNILSSKVYDVAYETPLQKAPKLSERLGVNVLKREDLQPVFSFKIRGAYNMMAKLPKEQLEKGVICSSAGNHAQGVALSAQRLGCDAVIVMPVTTPDIKKSVKRLGATVVLVGDSYDEAQAYAKKRAESEGRTFIPPFDHPDVIVGQGTVGMEINRQLKDNIHAIFVPVGGGGLIAGIAAYLKRVAPDIKIIGVEPLDANALALSLHHGQRVMLDQVGGFADGVAVKVVGEETYRLCEELIDGVVLVGRDAICASIKDMFEEKRSILEPAGALALAGAEAYCKYYGLKGENVVAITSGANMNFDRLRLVTELADVGRQREAVLATFMPEDPGSFKKFAEMVGPMNITEFKYRYNSDKERALVLYSVGLHTILELEGMVERMESADLQTINLTDNDLVKDHLRHLMGGRTNVHNELLCRFTFPEKPGALMKFLDAFSPRNISLFHYRAQGDTGANVLVGIQVPPDEVVEFEGRADSLGYEYAMESLNEAYQLIMH | soluble
MRRLLTLWVLGLGALAQVPVGQVATRDVHALLWLPDGRLLFGHHDGLQVSEDEGRTWRDLVRKTGFDAMEHSFWRGDRLLAAEHWVLSESRDGGKTWRSFRPRGLPALDLHGYAASGGLHFALEATHGYFVSEDGGKTFKSTAPKGLPKAGMAAMVFQGKTLYVAPMGQGLYQSSDGGRTFTQVPTPEREIYALATGAGTLYLGGKTGLWQRTPAGWKRLWQGAVLALAAHPQEAGRLVFIDGQERVWKLP | soluble
MKRRDILKGGLAAGALALLPRGHTQGALQNQPSLGRRYRNLIVFVYDGFSWEDYAIAQAYARRRQGRVLALERLLARYPNGLINTYSLTSYVTESSAAGNAFSCGVKTVNGGLAIHADGTPLKPFFAAAKEAGKAVGLVTTTTVTHATPASFVISNPDRNAEERIAEQYLEFGAEVYLGGGDRFFNPARRKDGKDLYAAFAAKGYGVVRTPEELVRSNATRLLGVFADGHVPYEIDRRFQGLGVPSLKEMVQAALPRLAAHRGGFVLQVEAGRIDHANHLNDAGATLWDVLAADEVLELLTAFVDRNPDTLLIVVSDHATGVGGLYGAGRSYLESSQGVDLLEPQRASFEHMLRVLGQAPEASQVKEAFRAMKGVDLEDAEAERVVRAIREKVYWPEGVRQGVQPANTMAWAMVQRDAQKPDRPNIGWSSGQHTASPVMLLLYGQGLRFVNLGLVDNTHVFRLMGEALGLRYQNPVMSEEEALEILKARPQGMRHPEDVWA | soluble
MAFESSKSYYSIGEVSRISGIPAYLLRYWEDYFSELAPARDTRGNRRYTNRDIAMVLNIKDLVYEKGYKLNKASQMVKGGKVDHDGADHKTNEILKLQKQLLREQKEYEITGERRRMLLLEIKDEIEDILELLG | not soluble
MSLTIFDNYEVWFVIGSQHLYGPETLRQVTQHAEHVVNALNTEAKLPCKLVLKPLGTTPDEITAICRDANYDDRCAGLVVWLHTFSPAKMWINGLTMLNKPLLQFHTQFNAALPWDSIDMDFMNLNQTAHGGREFGFIGARMRQQHAVVTGHWQDKQAHERIGSWMRQAVSKQDTRHLKVCRFGDNMREVAVTDGDKVAAQIKFGFSVNTWAVGDLVQVVNSISDGDVNALVDEYESCYTMTPATQIHGKKRQNVLEAARIELGMKRFLEQGGFHAFTTTFEDLHGLKQLPGLAVQRLMQQGYGFAGEGDWKTAALLRIMKVMSTGLQGGTSFMEDYTYHFEKGNDLVLGSHMLEVCPSIAAEEKPILDVQHLGIGGKDDPARLIFNTQTGPAIVASLIDLGDRYRLLVNCIDTVKTPHSLPKLPVANALWKAQPDLPTASEAWILAGGAHHTVFSHALNLNDMRQFAEMHDIEITVIDNDTRLPAFKDALRWNEVYYGFRREGHHHHHH | soluble
MTATNDKGLQQIATIIEQHQTLPGAMLPILHAIQNDLSFIPSNALPLIAKALNVSKAEVHGVISFYHHFRTEEPGAHVIEICRGESCQAMGSRALEENIKQNLSIDYHQTSKDRQYTLEPVYCLGNCACSPAMRIGDDIHGELDLQKFEQIIASLNTYSLELK | not soluble
MEAGSIVLGLVGKTNVGKSTFFAAATEVPVKIENRPFVTIEPNVGVGYARKRCAHVELGLPRCDPVNSLCIEGWRFIPVKLLDVAGLVPGAHRGRGLGNRFLDDVRKADALLLVVDASGSTDPEGVPVKPGSYDPVEEVGLMLGEIYEWMLQNLARDWERFARRVDTAGNVDLVTALSQRLSGFEIPRGVVAGVLEETGLGEKRLSSWSREDLRLFVKLVLERGKPAVILANKVDVPGAEENVERLGSSYPGIPVVPASALAELMLRRLAREGRVRYIPGDPDFTVKDPGGLGGKALKALELVRERVMKRWGGTGVVQAINTAVFDVLDMIAVYPVEDPNRYTDREGRILPDVILVKRGSTPRDLAYRIHTDLGKTFLYAVNAKTKQRVGEGYRLQDGDVVKIVAAAGKR | soluble
